Experimental data: patent publication US20090285843A1, “EPITOPE SEQUENCES” (Mannkind Corporation, priority 2002, published 2009)

How the values were obtained:
624.38 = assay: In vitro induced CTL, chromium release assay on tumor cell line; type: cell-based, human; settings: 624.38, HLA-A2+, tyrosinase+
Experimental: (§1) , tyrosinase207-215 (SEQ ID NO. 8) was used in an in vitro immunization of HLA-A2^+ blood to generate CTL (see CTL Induction Cultures below).
(§2) PBMCs from normal donors were purified by centrifugation in Ficoll-Hypaque from buffy coats. All cultures were carried out using the autologous plasma (AP) to avoid exposure to potential xenogeneic pathogens and recognition of FBS peptides. To favor the in vitro generation of peptide-specific CTL, we employed autologous dendritic cells (DC) as APCs. DC were generated and CTL were induced with DC and peptide from PBMCs as described (Keogh et al., 2001). Briefly, monocyte-enriched cell fractions were cultured for 5 days with GM-CSF and IL-4 and were cultured for 2 additional days in culture media with 2 μg/ml CD40 ligand to induce maturation. 2×10^6 CD8+-enriched T lymphocytes/well and 2×10^5 peptide-pulsed DC/well were co-cultured in 24-well plates in 2 ml RPMI supplemented with 10% AP, 10 ng/ml IL-7 and 20 IU/ml IL-2. Cultures were restimulated on days 7 and 14 with autologous irradiated peptide-pulsed DC.

HTB64 = assay: as above; type: cell-based, human; settings: HTB64, HLA-A2+, tyrosinase+
Experimental: as §1, §2

HLA-A2.1 = HLA-A2.1 (Homo sapiens, UniProt P04439, D140Y/D185E/D98H/E176V/E277Q/G131W/G231S/I119V/I121R/I166T/I218V/L300P/L318F/N151K/N90K/P208A/P217A/Q86G/Q94H/R138H/R169H/T345S); assay: HLA-A0201 binding assay (T2 cells, flow cytometry); settings: for binding to HLA-A2.1: T2 cells, flow cytometry, compared with control peptides
peptide pulsed T2 cells [1] = assay: In vitro immunization of HLA-A2+ blood (CTL induction cultures), chromium release assay; type: cell-based, human
Experimental: as §1, §2

[2] = target: T1, proteasome isolated from human red blood cells (Homo sapiens, UniProt P28072+P28074+Q99436); assay: N-terminal pool sequence analysis of proteasomal digest; type: biochemical; settings: in vitro proteasome digestion and N-terminal pool sequencing
T1 construct: from tissue; host or cells: human red blood cells
Source text: One aliquot at one hour of the proteasomal digestion (see Example 3 part 3 above) was subjected to N-terminal amino acid sequence analysis by an ABI 473A Protein Sequencer (Applied Biosystems, Foster City, Calif.). Determination of the sites and efficiencies of cleavage was based on consideration of the sequence cycle, the repetitive yield of the protein sequencer, and the relative yields of amino acids unique in the analyzed sequence. That is if the unique (in the analyzed sequence) residue X appears only in the nth cycle a cleavage site exists n−1 residues before it in the N-terminal direction.

[3] = tested on: tumor cells expressing other SSX proteins; assay: Cross-reactivity of CTL with other SSX proteins; type: cell-based
Source text: The surrounding regions have also been generally well conserved. Thus the housekeeping proteasome can cleave following V49 in all five sequences.

peptide pulsed T2 cells [4] = assay: In vivo immunization of mice, in vitro stimulation, chromium-release assay measuring CTL activity; parameters: species or system HHD1 transgenic A*0201 mice; settings: 100 nmol peptide s.c. with HTL epitope peptide in IFA; 51Cr-release
Experimental: Using spleens from 2 naive mice for each group of immunized mice, un-immunized mice were sacrificed and the carcasses were placed in alcohol. Using sterile instruments, the top dermal layer of skin on the mouse's left side (lower mid-section) was cut through, exposing the peritoneum. The peritoneum was saturated with alcohol, and the spleen was aseptically extracted. The spleen was placed in a petri dish with serum-free media. Splenocytes were isolated by using sterile plungers from 3 ml syringes to mash the spleens. Cells were collected in a 50 ml conical tubes in serum-free media, rinsing dish well. Cells were centrifuged ([…], 7 min) and washed one time with RPMI. Fresh spleen cells were resuspended to a concentration of 1×10^6 cells per ml in RPMI-10% FCS (fetal calf serum). 25 µg/ml lipopolysaccharide and 7 μg/ml Dextran Sulfate were added. Cell were incubated for 3 days in T-75 flasks at 37° C., with 5% CO2. Splenic blasts were collected in 50 ml tubes pelleted ([…], 7 min) and resuspended to 3×10^7/ml in RPMI. The blasts were pulsed with the priming peptide at 50 μg/ml, RT 4 hr. mitomycin C-treated at 25 μg/ml, 37° C., 20 min and washed three times with DMEM. […]
During incubation they were gently shaken every 15 minutes. […] Supernatants were harvested and counted using a gamma counter.

metastatic melanoma = settings: first 15 patients; intradermal peptide with IL-12; cited from earlier work
HLA-A1+ CD8+ T cells = assay: gamma-IFN-based ELISPOT assay; type: cell-based, human; settings: blocking of gamma IFN production by anti-HLA-A1 monoclonal antibody
Experimental: The wells of a nitrocellulose-backed microtiter plate were coated with capture antibody by incubating overnight at 4° C. using 50 μl (microliter)/well of 4 μg/ml murine anti-human γ (gamma)-IFN monoclonal antibody in coating buffer (35 mM sodium bicarbonate, 15 mM sodium carbonate, pH 9.5). Unbound antibody was removed by washing 4 times 5 min. with PBS. Unbound sites on the membrane then were blocked by adding 200 μl (microliter)/well of RPMI medium with 10% serum and incubating 1 hr. at room temperature. Antigen stimulated CD8^+ T cells, in 1:3 serial dilutions, were seeded into the wells of the microtiter plate using 100 μl (microliter)/well, starting at 2×10^5 cells/well. (Prior antigen stimulation was essentially as described in Scheibenbogen, C. et al. Int. J. […] PSMA462-471 (SEQ ID NO. 62) was added to a final concentration of 10 μg/ml and IL-2 to 100 U/ml and the cells cultured at 37° C. in a 5% CO2, water-saturated atmosphere for 40 hrs. Following this incubation the plates were washed with 6 times 200 μl (microliter)/well of PBS containing 0.05% Tween-20 (PBS-Tween). […] The plate was air dried and the spots counted using a stereomicroscope. […] No reactivity is detected from cultures without peptide (data not shown).

FLPWHRLFL (listed as Homo sapiens) [tyrosinase207-215]
recognition of tumor cell line by CTL induced by the peptide (624.38): recognize | recognition of tumor cell line by CTL induced by the peptide (HTB64): recognize | binding to HLA-A2.1 (HLA-A2.1): more significant binding | immunogenicity (peptide pulsed T2 cells [1]; compared with the other tyrosinase length variant): superior immunogenicity | recognition of tyrosinase207-216 targets by CTL induced by the peptide (peptide pulsed T2 cells [1]; peptide pulsed T2 cells, standard chromium release assay): equally well

FLPWHRLFLL (listed as Homo sapiens) [Tyrosinase207-216]
relative production by in vitro proteasome digestion [2]: produced more commonly

GLPSIPVHPI (listed as Homo sapiens) [PSMA288-297]
binding to HLA-A2.1 (HLA-A2.1): significant binding at even lower concentrations than the positive control peptides

GMPEGDLVYV (listed as Homo sapiens) [PSMA168-177]
binding to HLA-A2.1 (HLA-A2.1): significant binding at even lower concentrations than the positive control peptides

KASEKIFYV [SSX-241-49]
cross-reactivity of CTL generated by immunization [3]: cross-react with tumor cells expressing other SSX proteins | binding to HLA-A2.1 (HLA-A2.1): bind HLA-A2.1 to a similar extent as the known A2.1 binder FLPSDYFPSV | specific lysis of peptide pulsed targets by CTL from immunized mice (peptide pulsed T2 cells [4]): specific lysis

MART-126-35 peptide: MART-1 26-35 peptide given intradermally with IL-12 to metastatic melanoma patients (Cebon et al.)
clinical response (metastatic melanoma): 1 complete remission, 1 partial remission, and 1 mixed response

MMNDQLMFL [PSMA663-671]
binding to HLA-A2.1 (HLA-A2.1): significant binding at even lower concentrations than the positive control peptide

RMMNDQLMFL (listed as Homo sapiens) [PSMA662-671]
binding to HLA-A2.1 (HLA-A2.1): significant binding at even lower concentrations than the positive control peptide | binding activity compared between the two PSMA peptides (HLA-A2.1; not run in parallel, comparison to the controls): superior binding activity

RVDCTPLMY [PSMA463-471]
HLA restriction of response (HLA-A1+ CD8+ T cells): HLA-A1-restricted response

TLRVDCTPL (listed as Homo sapiens) [PSMA461-469]
binding to HLA-A2.1 (HLA-A2.1): binds nearly as well

YTLRVDCTPL (listed as Homo sapiens) [PSMA460-469]
binding to HLA-A2.1 (HLA-A2.1): bind HLA-A2.1 to a similar extent as the known A2.1 binder FLPSDYFPSV
